Data on one protein can be found in PMC6288613, “Mouse REC114 is essential for meiotic DNA double-strand break formation and forms a complex with MEI4” (Life Science Alliance, 2018).

The series deals with the molecule itself. Put plainly: SEC-MALS; SEC-MALLS, Superdex 75; 50 ul of purified protein injected at 10, 5 and 2 mg/ml; dimer to monomers, fast exchange. (In general: SEC sorts molecules by how far they enter the pores of the column.)

B1: Mouse REC114 (15-159) (domain or fragment, UniProt Q9CWH4 15-159, looked up)
chain: GEVSQWSLKRYGRFMLLDNVGSPGPSSEAAAAGSPTWKVFESSEESGSLVLTIVVSGHFFISQGQTLLEGFSLIGSKNWLKIVRRMDCLLFGTTIKNKSRMFRVQFSGESKEEALERCCGCVQTLAQYVTVQEPDSTTQELQQSQ
notes: REC114, mouse, residues 15-159 (PH domain), expressed from pProEXHTb; final crystallographic model includes residues 15-150; A selenomethionine-substituted form was also crystallised for phasing; also called REC114 PH domain; REC114 N-terminal region; source: E. coli BL21-Gold (DE3), purified (Ni2+ resin, TEV cleavage, second Ni2+ column, size-exclusion chromatography)
For the protein B1, the stoichiometry N (usually a count of units in the complex or per binding partner) was 2.
